For the assay, the target named is SARS-CoV-2 NSP12 (SARS-CoV-2), P0DTD1.

B1: N8-Pepα (peptide)
chain: NDALNNIINNARDGCVPLNIIPLTTA
modifications: not checked
In turn, B1 gave an IC50 of inhibition of SARS-CoV-2 RdRp activity in the cell-based minigenome (luciferase) assay; pair blocked: NSP12-NSP8 of 8 µM.

For the origin of these results see publication PMC12432892, “Therapeutic applications of interface-mimicking peptides for targeting the SARS-CoV-2 NSP12-NSP8 RdRp complex” (Molecular Therapy, 2025).
